Experimental data published in IntAct's records for PubMed 15644435.

These substances were tested against ush_drome ush (UniProt Q9VPQ6).
ush_drome ush, sequence (Q9VPQ6 whole entry): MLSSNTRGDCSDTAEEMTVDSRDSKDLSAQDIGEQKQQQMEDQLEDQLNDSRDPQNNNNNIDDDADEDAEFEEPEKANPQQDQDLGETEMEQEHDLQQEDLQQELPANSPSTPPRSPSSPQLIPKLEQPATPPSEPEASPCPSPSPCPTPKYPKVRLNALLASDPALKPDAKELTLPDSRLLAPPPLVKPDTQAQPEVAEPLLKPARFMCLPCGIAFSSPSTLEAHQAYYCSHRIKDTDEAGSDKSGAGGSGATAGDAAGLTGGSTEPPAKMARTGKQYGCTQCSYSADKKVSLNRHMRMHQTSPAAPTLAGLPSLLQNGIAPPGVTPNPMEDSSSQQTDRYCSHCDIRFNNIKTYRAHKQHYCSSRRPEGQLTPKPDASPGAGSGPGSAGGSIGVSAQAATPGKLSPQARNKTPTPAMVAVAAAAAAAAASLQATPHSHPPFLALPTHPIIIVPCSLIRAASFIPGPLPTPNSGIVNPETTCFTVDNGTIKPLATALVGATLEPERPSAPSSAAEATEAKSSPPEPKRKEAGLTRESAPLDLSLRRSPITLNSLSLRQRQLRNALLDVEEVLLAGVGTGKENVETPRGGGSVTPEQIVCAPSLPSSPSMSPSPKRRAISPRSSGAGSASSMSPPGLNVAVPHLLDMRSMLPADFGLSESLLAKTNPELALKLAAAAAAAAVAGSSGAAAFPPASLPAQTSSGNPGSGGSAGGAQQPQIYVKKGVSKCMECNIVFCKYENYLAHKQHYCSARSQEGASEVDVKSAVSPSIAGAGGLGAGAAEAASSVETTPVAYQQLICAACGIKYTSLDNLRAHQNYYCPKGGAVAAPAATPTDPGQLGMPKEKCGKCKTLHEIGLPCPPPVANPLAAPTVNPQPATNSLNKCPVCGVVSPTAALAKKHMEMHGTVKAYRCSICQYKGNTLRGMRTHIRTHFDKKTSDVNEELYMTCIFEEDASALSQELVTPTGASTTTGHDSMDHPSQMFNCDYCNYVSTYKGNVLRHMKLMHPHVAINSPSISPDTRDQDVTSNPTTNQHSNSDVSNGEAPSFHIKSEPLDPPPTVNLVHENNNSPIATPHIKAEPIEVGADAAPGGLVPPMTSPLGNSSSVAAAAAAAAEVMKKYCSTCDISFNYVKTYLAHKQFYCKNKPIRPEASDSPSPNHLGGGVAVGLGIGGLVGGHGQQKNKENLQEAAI

Erythroid transcription factor (Mus musculus), P17679 D218G, sequence (P17679 whole entry D218G): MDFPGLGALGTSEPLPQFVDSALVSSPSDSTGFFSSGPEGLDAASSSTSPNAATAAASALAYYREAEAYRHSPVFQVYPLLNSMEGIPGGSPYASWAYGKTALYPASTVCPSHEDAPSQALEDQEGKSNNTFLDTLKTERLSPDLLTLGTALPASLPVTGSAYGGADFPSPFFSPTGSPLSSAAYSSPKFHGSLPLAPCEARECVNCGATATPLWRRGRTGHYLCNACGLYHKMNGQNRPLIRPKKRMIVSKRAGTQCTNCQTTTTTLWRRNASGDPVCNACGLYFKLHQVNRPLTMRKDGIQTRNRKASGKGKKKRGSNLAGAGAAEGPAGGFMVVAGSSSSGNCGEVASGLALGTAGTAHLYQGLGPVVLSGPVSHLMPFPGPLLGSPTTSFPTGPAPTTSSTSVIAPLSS
Erythroid transcription factor (Mus musculus), P17679 G208S, sequence (P17679 whole entry G208S): as the sequence (P17679 whole entry D218G) above, with G208S, G218D counted along it
Erythroid transcription factor (Mus musculus), P17679 V205M, sequence (P17679 whole entry V205M): as the sequence (P17679 whole entry D218G) above, with V205M, G218D counted along it
Erythroid transcription factor (Mus musculus), P17679 R216Q, sequence (P17679 whole entry R216Q): as the sequence (P17679 whole entry D218G) above, with R216Q, G218D counted along it

Substance	effect of a mutation on the interaction
Erythroid transcription factor (Mus musculus), P17679 R216Q	with no effect
Erythroid transcription factor (Mus musculus), P17679 V205M	disrupting interaction strength
Erythroid transcription factor (Mus musculus), P17679 G208S	disrupting interaction strength
Erythroid transcription factor (Mus musculus), P17679 D218G	with no effect
